B1: E3 ubiquitin-protein ligase RNF4 (Rattus norvegicus (Rat)), O88846 (parent)
chain: MSTRNPQRKRRGGAVNSRQTQKRTRETTSTPEISLEAEPIELVETVGDEIVDLTCESLEPVVVDLTHNDSVVIVEERRRPRRNGRRLRQDHADSCVVSSDDEELSKDKDVYVTTHTPRSTKDEGTTGLRPSGTVSCPICMDGYSEIVQNGRLIVSTECGHVFCSQCLRDSLKNANTCPTCRKKINHKRYHPIYI

Variants of: B1
Conditions: with sumo2_human SUMO2, P61956
Chain of sumo2_human SUMO2, P61956 (P61956 whole entry): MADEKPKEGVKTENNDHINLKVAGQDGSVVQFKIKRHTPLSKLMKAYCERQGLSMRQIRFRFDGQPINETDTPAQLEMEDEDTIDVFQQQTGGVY

Row | Variant | effect of a mutation on the interaction
1 | V51A | disrupting interaction
2 | L53A | disrupting interaction
3 | V61A | disrupting interaction
4 | L42A | disrupting interaction
5 | V62A | disrupting interaction
6 | I40A | disrupting interaction
7 | V43A | disrupting interaction
8 | I50A | disrupting interaction

The remaining lines, values ahead:

Row | effect of a mutation on the interaction | Variant
9 | disrupting interaction | V71A
10 | disrupting interaction | V72A
11 | disrupting interaction | I73A
12 | disrupting interaction | V63A
13 | disrupting interaction | V74A
